# Data taken from article PMC12102759 (2025).
# B1: NOTCH4 peptide 1606-1621 (Neurogenic locus notch homolog protein 4), 16-mer library wild type / NSP9 (ORF1ab Nsp9, residues 4141-4253) (parent complex)
# chain 1: QGAWLGAPEPWEPLLD
# chain 2: NNELSPVALRQMSCAAGTTQTACTDDNALAYYNTTKGGRFVLALLSDLQDLKWARFPKSDGTGTIYTELEPPCRFVTDTPKGPKVKYLYFIKGLNNLNRGMVLGSLAATVRLQ
# Variants of: B1
# Test: bait immobilised on MaxiSorp plates (10 µg), library pre-cleared on GST, 2 h binding at 4 °C, five washes; one round per day, days 1-4; value from days 2 and 3
row,Variant,screen value
1,chain 1 A7N,"0.00161 average fractional NGS count over selection days 2 and 3 (reads of this peptide / all reads for the bait, averaged over …"
2,chain 1 A7D,"0.00053 average fractional NGS count over selection days 2 and 3 (reads of this peptide / all reads for the bait, averaged over …"
3,chain 1 A7S,"0.00083 average fractional NGS count over selection days 2 and 3 (reads of this peptide / all reads for the bait, averaged over …"
4,chain 1 A7V,"0.00673 average fractional NGS count over selection days 2 and 3 (reads of this peptide / all reads for the bait, averaged over …"
5,chain 1 A7M,"0.000666 average fractional NGS count over selection days 2 and 3 (reads of this peptide / all reads for the bait, averaged over …"
6,chain 1 A7W,"0.000255 average fractional NGS count over selection days 2 and 3 (reads of this peptide / all reads for the bait, averaged over …"
7,chain 1 A7H,"0.0144 average fractional NGS count over selection days 2 and 3 (reads of this peptide / all reads for the bait, averaged over …"
8,chain 1 A7P,"0.000551 average fractional NGS count over selection days 2 and 3 (reads of this peptide / all reads for the bait, averaged over …"
9,chain 1 A7L,"0.000927 average fractional NGS count over selection days 2 and 3 (reads of this peptide / all reads for the bait, averaged over …"
10,chain 1 A7F,"0.000134 average fractional NGS count over selection days 2 and 3 (reads of this peptide / all reads for the bait, averaged over …"
11,chain 1 A7Y,"0.000616 average fractional NGS count over selection days 2 and 3 (reads of this peptide / all reads for the bait, averaged over …"
12,chain 1 L15D,"0.000339 average fractional NGS count over selection days 2 and 3 (reads of this peptide / all reads for the bait, averaged over …"
13,chain 1 L15A,"0.00794 average fractional NGS count over selection days 2 and 3 (reads of this peptide / all reads for the bait, averaged over …"
14,chain 1 L15M,"0.000609 average fractional NGS count over selection days 2 and 3 (reads of this peptide / all reads for the bait, averaged over …"
15,chain 1 L15F,"0.000114 average fractional NGS count over selection days 2 and 3 (reads of this peptide / all reads for the bait, averaged over …"
16,chain 1 L15S,"0.00194 average fractional NGS count over selection days 2 and 3 (reads of this peptide / all reads for the bait, averaged over …"
17,chain 1 L15H,"0.00012 average fractional NGS count over selection days 2 and 3 (reads of this peptide / all reads for the bait, averaged over …"
18,chain 1 L15E,"0.00221 average fractional NGS count over selection days 2 and 3 (reads of this peptide / all reads for the bait, averaged over …"
19,chain 1 L15N,"0.00024 average fractional NGS count over selection days 2 and 3 (reads of this peptide / all reads for the bait, averaged over …"
20,chain 1 L15R,"0.000322 average fractional NGS count over selection days 2 and 3 (reads of this peptide / all reads for the bait, averaged over …"
21,chain 1 L15T,"0.00153 average fractional NGS count over selection days 2 and 3 (reads of this peptide / all reads for the bait, averaged over …"
22,chain 1 L15K,"0.00133 average fractional NGS count over selection days 2 and 3 (reads of this peptide / all reads for the bait, averaged over …"
23,chain 1 L15V,"0.00299 average fractional NGS count over selection days 2 and 3 (reads of this peptide / all reads for the bait, averaged over …"
24,chain 1 Q1N,"0.00294 average fractional NGS count over selection days 2 and 3 (reads of this peptide / all reads for the bait, averaged over …"
25,chain 1 Q1A,"0.00674 average fractional NGS count over selection days 2 and 3 (reads of this peptide / all reads for the bait, averaged over …"

row,Variant,screen value
1,chain 1 Q1W,"0.000692 average fractional NGS count over selection days 2 and 3 (reads of this peptide / all reads for the bait, averaged over …"
2,chain 1 Q1D,"0.000709 average fractional NGS count over selection days 2 and 3 (reads of this peptide / all reads for the bait, averaged over …"
3,chain 1 Q1M,"0.00503 average fractional NGS count over selection days 2 and 3 (reads of this peptide / all reads for the bait, averaged over …"
4,chain 1 Q1F,"0.000338 average fractional NGS count over selection days 2 and 3 (reads of this peptide / all reads for the bait, averaged over …"
5,chain 1 Q1Y,"0.00151 average fractional NGS count over selection days 2 and 3 (reads of this peptide / all reads for the bait, averaged over …"
6,chain 1 W11H,"0.00345 average fractional NGS count over selection days 2 and 3 (reads of this peptide / all reads for the bait, averaged over …"
7,chain 1 W11A,"0.00423 average fractional NGS count over selection days 2 and 3 (reads of this peptide / all reads for the bait, averaged over …"
8,chain 1 W11G,"0.0061 average fractional NGS count over selection days 2 and 3 (reads of this peptide / all reads for the bait, averaged over …"
9,chain 1 W11Q,"0.00182 average fractional NGS count over selection days 2 and 3 (reads of this peptide / all reads for the bait, averaged over …"
10,chain 1 W11M,"0.0273 average fractional NGS count over selection days 2 and 3 (reads of this peptide / all reads for the bait, averaged over …"
11,chain 1 W11T,"0.000139 average fractional NGS count over selection days 2 and 3 (reads of this peptide / all reads for the bait, averaged over …"
12,chain 1 W11V,"0.000951 average fractional NGS count over selection days 2 and 3 (reads of this peptide / all reads for the bait, averaged over …"
13,chain 1 W11F,"0.0024 average fractional NGS count over selection days 2 and 3 (reads of this peptide / all reads for the bait, averaged over …"
14,chain 1 W11E,"0.00215 average fractional NGS count over selection days 2 and 3 (reads of this peptide / all reads for the bait, averaged over …"
15,chain 1 W11P,"0.0013 average fractional NGS count over selection days 2 and 3 (reads of this peptide / all reads for the bait, averaged over …"
16,chain 1 E12H,"8.76e-05 average fractional NGS count over selection days 2 and 3 (reads of this peptide / all reads for the bait, averaged over …"
17,chain 1 E12L,"0.00277 average fractional NGS count over selection days 2 and 3 (reads of this peptide / all reads for the bait, averaged over …"
18,chain 1 E12V,"0.00994 average fractional NGS count over selection days 2 and 3 (reads of this peptide / all reads for the bait, averaged over …"
19,chain 1 E12P,"0.00101 average fractional NGS count over selection days 2 and 3 (reads of this peptide / all reads for the bait, averaged over …"
20,chain 1 E12W,"0.0479 average fractional NGS count over selection days 2 and 3 (reads of this peptide / all reads for the bait, averaged over …"
21,chain 1 E12D,"0.000215 average fractional NGS count over selection days 2 and 3 (reads of this peptide / all reads for the bait, averaged over …"
22,chain 1 E12N,"0.00209 average fractional NGS count over selection days 2 and 3 (reads of this peptide / all reads for the bait, averaged over …"
23,chain 1 E12T,"0.00258 average fractional NGS count over selection days 2 and 3 (reads of this peptide / all reads for the bait, averaged over …"
24,chain 1 E12K,"0.00114 average fractional NGS count over selection days 2 and 3 (reads of this peptide / all reads for the bait, averaged over …"
25,chain 1 E12I,"0.000686 average fractional NGS count over selection days 2 and 3 (reads of this peptide / all reads for the bait, averaged over …"

row,Variant,screen value
1,chain 1 E12M,"0.00442 average fractional NGS count over selection days 2 and 3 (reads of this peptide / all reads for the bait, averaged over …"
2,chain 1 E12S,"0.00302 average fractional NGS count over selection days 2 and 3 (reads of this peptide / all reads for the bait, averaged over …"
3,chain 1 P13S,"0.000244 average fractional NGS count over selection days 2 and 3 (reads of this peptide / all reads for the bait, averaged over …"
4,chain 1 P13W,"0.000306 average fractional NGS count over selection days 2 and 3 (reads of this peptide / all reads for the bait, averaged over …"
5,chain 1 P13Q,"0.000154 average fractional NGS count over selection days 2 and 3 (reads of this peptide / all reads for the bait, averaged over …"
6,chain 1 P13F,"0.0013 average fractional NGS count over selection days 2 and 3 (reads of this peptide / all reads for the bait, averaged over …"
7,chain 1 P13D,"0.00132 average fractional NGS count over selection days 2 and 3 (reads of this peptide / all reads for the bait, averaged over …"
8,chain 1 P13R,"0.00106 average fractional NGS count over selection days 2 and 3 (reads of this peptide / all reads for the bait, averaged over …"
9,chain 1 P13H,"0.000211 average fractional NGS count over selection days 2 and 3 (reads of this peptide / all reads for the bait, averaged over …"
10,chain 1 P13N,"0.000298 average fractional NGS count over selection days 2 and 3 (reads of this peptide / all reads for the bait, averaged over …"
11,chain 1 P13T,"0.000368 average fractional NGS count over selection days 2 and 3 (reads of this peptide / all reads for the bait, averaged over …"
12,chain 1 P13M,"0.00222 average fractional NGS count over selection days 2 and 3 (reads of this peptide / all reads for the bait, averaged over …"
13,chain 1 P10I,"0.00391 average fractional NGS count over selection days 2 and 3 (reads of this peptide / all reads for the bait, averaged over …"
14,chain 1 P10D,"0.00968 average fractional NGS count over selection days 2 and 3 (reads of this peptide / all reads for the bait, averaged over …"
15,chain 1 P10A,"0.000635 average fractional NGS count over selection days 2 and 3 (reads of this peptide / all reads for the bait, averaged over …"
16,chain 1 P10R,"0.00113 average fractional NGS count over selection days 2 and 3 (reads of this peptide / all reads for the bait, averaged over …"
17,chain 1 P10M,"0.0078 average fractional NGS count over selection days 2 and 3 (reads of this peptide / all reads for the bait, averaged over …"
18,chain 1 P10T,"0.00164 average fractional NGS count over selection days 2 and 3 (reads of this peptide / all reads for the bait, averaged over …"
19,chain 1 P10K,"0.00223 average fractional NGS count over selection days 2 and 3 (reads of this peptide / all reads for the bait, averaged over …"
20,chain 1 P10E,"0.00264 average fractional NGS count over selection days 2 and 3 (reads of this peptide / all reads for the bait, averaged over …"
21,chain 1 P10Q,"0.000676 average fractional NGS count over selection days 2 and 3 (reads of this peptide / all reads for the bait, averaged over …"
22,chain 1 P10H,"0.000471 average fractional NGS count over selection days 2 and 3 (reads of this peptide / all reads for the bait, averaged over …"
23,chain 1 P10V,"0.00245 average fractional NGS count over selection days 2 and 3 (reads of this peptide / all reads for the bait, averaged over …"
24,chain 1 P10G,"0.000535 average fractional NGS count over selection days 2 and 3 (reads of this peptide / all reads for the bait, averaged over …"
25,chain 1 P10W,"0.00034 average fractional NGS count over selection days 2 and 3 (reads of this peptide / all reads for the bait, averaged over …"
